B1: Glycine--tRNA ligase (Homo sapiens), P41250 (parent)
chain: MPSPRPVLLRGARAALLLLLPPRLLARPSLLLRRSLSAASCPPISLPAAASRSSMDGAGAEEVLAPLRLAVRQQGDLVRKLKEDKAPQVDVDKAVAELKARKRVLEAKELALQPKDDIVDRAKMEDTLKRRFFYDQAFAIYGGVSGLYDFGPVGCALKNNIIQTWRQHFIQEEQILEIDCTMLTPEPVLKTSGHVDKFADFMVKDVKNGECFRADHLLKAHLQKLMSDKKCSVEKKSEMESVLAQLDNYGQQELADLFVNYNVKSPITGNDLSPPVSFNLMFKTFIGPGGNMPGYLRPETAQGIFLNFKRLLEFNQGKLPFAAAQIGNSFRNEISPRSGLIRVREFTMAEIEHFVDPSEKDHPKFQNVADLHLYLYSAKAQVSGQSARKMRLGDAVEQGVINNTVLGYFIGRIYLYLTKVGISPDKLRFRQHMENEMAHYACDCWDAESKTSYGWIEIVGCADRSCYDLSCHARATKVPLVAEKPLKEPKTVNVVQFEPSKGAIGKAYKKDAKLVMEYLAICDECYITEMEMLLNEKGEFTIETEGKTFQLTKDMINVKRFQKTLYVEEVVPNVIEPSFGLGRIMYTVFEHTFHVREGDEQRTFFSFPAVVAPFKCSVLPLSQNQEFMPFVKELSEALTRHGVSHKVDDSSGSIGRRYARTDEIGVAFGVTIDFDTVNKTPHTATLRDRDSMRQIRAEISELPSIVQDLANGNITWADVEARYPLFEGQETGKKETIEE

Variants of: B1
Conditions: with hdac6_human HDAC6, Q9UBN7
Sequence of hdac6_human HDAC6, Q9UBN7 (Q9UBN7 whole entry): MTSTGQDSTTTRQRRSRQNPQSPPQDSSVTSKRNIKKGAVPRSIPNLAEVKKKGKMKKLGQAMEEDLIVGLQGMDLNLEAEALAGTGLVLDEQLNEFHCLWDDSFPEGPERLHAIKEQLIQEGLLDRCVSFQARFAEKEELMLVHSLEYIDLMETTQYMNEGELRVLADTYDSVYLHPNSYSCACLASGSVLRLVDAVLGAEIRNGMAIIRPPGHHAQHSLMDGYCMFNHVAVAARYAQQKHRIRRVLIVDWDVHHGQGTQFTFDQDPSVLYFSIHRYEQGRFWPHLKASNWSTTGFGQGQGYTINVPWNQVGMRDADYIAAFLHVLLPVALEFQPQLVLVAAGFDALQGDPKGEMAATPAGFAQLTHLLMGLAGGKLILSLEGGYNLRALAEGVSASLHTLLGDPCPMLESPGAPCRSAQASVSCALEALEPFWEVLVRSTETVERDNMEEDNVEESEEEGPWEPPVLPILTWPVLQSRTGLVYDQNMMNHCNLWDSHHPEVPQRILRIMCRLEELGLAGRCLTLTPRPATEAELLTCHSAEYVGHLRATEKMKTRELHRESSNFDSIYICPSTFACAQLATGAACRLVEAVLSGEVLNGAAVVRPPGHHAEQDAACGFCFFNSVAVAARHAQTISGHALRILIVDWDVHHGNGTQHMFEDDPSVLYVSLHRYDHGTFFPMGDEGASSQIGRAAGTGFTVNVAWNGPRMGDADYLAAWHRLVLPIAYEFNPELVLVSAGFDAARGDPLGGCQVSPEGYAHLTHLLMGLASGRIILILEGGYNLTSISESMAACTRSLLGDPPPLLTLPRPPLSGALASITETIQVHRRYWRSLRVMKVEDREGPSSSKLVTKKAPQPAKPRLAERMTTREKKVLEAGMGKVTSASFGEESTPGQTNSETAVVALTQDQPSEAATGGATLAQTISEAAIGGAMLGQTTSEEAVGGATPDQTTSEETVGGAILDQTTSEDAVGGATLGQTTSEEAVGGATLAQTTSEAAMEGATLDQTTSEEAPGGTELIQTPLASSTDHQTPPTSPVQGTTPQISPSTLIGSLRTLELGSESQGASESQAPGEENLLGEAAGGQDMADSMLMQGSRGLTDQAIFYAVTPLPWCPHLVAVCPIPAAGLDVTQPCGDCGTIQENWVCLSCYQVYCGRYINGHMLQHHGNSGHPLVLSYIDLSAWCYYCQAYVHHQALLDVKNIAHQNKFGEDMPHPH

Variant | effect of a mutation on the interaction
C211R | with no effect

From IntAct's records for PubMed 29415205
